Reference: patent US20030148460

How the values were obtained:
uteroferrin = uteroferrin (UniProt P09889)
UniProt P09889, sequence (P09889 22-340): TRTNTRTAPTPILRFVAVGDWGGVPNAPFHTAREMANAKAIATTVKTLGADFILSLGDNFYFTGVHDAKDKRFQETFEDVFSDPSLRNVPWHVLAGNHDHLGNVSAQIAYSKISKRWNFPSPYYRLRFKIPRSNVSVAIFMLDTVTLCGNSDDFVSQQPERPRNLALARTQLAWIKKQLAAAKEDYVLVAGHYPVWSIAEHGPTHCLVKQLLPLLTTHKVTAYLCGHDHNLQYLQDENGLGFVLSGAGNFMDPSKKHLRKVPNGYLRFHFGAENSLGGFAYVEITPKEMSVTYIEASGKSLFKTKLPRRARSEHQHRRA

Substance: bovine GlcNAc-phosphotransferase (UDP-N-acetylglucosamine: lysosomal enzyme N-Acetylglucosamine-1-phosphotransferase)
- Km as acceptor for transfer of GlcNAc-1-P (cathepsin D): Both uteroferrin and cathepsin D are effectively utilized as acceptors by purified GlcNAc-phosphotransferase with Kms below 20 µM
- Km as acceptor for transfer of GlcNAc-1-P (uteroferrin): Both uteroferrin and cathepsin D are effectively utilized as acceptors by purified GlcNAc-phosphotransferase with Kms below 20 µM
- Km as acceptor for transfer of GlcNAc-1-P (RNAse B): the Km was not reached at the solubility limit of the protein (at 600 µM)
